{
  "source": "the Human Domainome abundance scans (Beltran et al. 2025)",
  "parents": {"B1": {"name": "Nuclear receptor subfamily 4 group A member 2, residues 260 to 336; numbered along this chain, P43354 (parent)", "chain": "EGLCAVCGDNAACQHYGVRTCEGCKGFFKRTVQKNAKYVCLANKNCPVDKRRRNRCQYCRFQKCLAVGMVKEVVRTD"}},
  "note": "± gives the uncertainty stated by the source.",
  "data": [
    {"variants_of": "B1", "assay": "abundance fitness (aPCA) (normalised: wild type 0, dead -1); higher = more abundant; growth selection in yeast, the domain comes from the species named", "conditions": "Homo sapiens", "values": [
      {"variant": "EGLCAVCGDNAACQHYGVRTCEGCKGFFKRTVQKNAKYVCLANKNCPVDKRRRNWCQYCRFQKCLAVGMVKEVVRTD", "note": "[R55W]", "abundance fitness": "-0.026 ± 0.054"},
      {"variant": "EGLCAVCGDNAACQHYGVRTCEGCKGFFKRTVQKNAKYVCLANKNCPVDKRRRNRCQYCRFQKCLAVGMVKWVVRTD", "note": "[E72W]", "abundance fitness": "-0.276 ± 0.048"},
      {"variant": "EGLCAVCGDNAACQHYGVRTCEGCKGFFKRTVQKNAKYVCLANKNCPVDKRRRNRCQYCRFQKCLAVGMVKNVVRTD", "note": "[E72N]", "abundance fitness": "0.024 ± 0.16"},
      {"variant": "EGLCAVCGDNAACQHYGVRTCEECKGFFKRTVQKNAKYVCLANKNCPVDKRRRNRCQYCRFQKCLAVGMVKEVVRTD", "note": "[G23E]", "abundance fitness": "-0.016 ± 0.47"},
      {"variant": "EGLCAVCGDNAACQHYGVRTCEGCKGFFKRTVQKNAKYVCLANKNCPVDKRRRNRCQYCRWQKCLAVGMVKEVVRTD", "note": "[F61W]", "abundance fitness": "-0.05 ± 0.059"},
      {"variant": "EGLCAVCGDNAACQHYGVRTCEGCKGFFKRTVQKNAKYVCLANKNCPVDKRRRNRCQYCRGQKCLAVGMVKEVVRTD", "note": "[F61G]", "abundance fitness": "-1.01 ± 0.083"},
      {"variant": "EGLCAVCGDNAACQHYGVRTCEGCKGFFKRTVQKNAKYVCLANKNCPVDKRRRNRCQYCRFQKCLAVGMVKEVVRTK", "note": "[D77K]", "abundance fitness": "-0.1 ± 0.18"},
      {"variant": "EGLCAVCGDNAACQHYGVRTCEGCKGFFKRTVQKNAKYVCLANKNCPVDKRRRNRCQYCRFQKCLAVGMVKEVVRTC", "note": "[D77C]", "abundance fitness": "-0.061 ± 0.095"},
      {"variant": "EGLCAVCGDNAACQHYGVRTCEGCKGFFKRTVQKNAKYVCLANKNCPVDKRRRNRCQYCRFQKCLAVGMVKEVVRAD", "note": "[T76A]", "abundance fitness": "0.117 ± 0.067"},
      {"variant": "EGLCAVCGDNAACQHYGVRTCEGCKGFFKRTVQKNAKYVCLANKNCPVDKRRRNRCQYCRFQKCLAVGMVKEVVRED", "note": "[T76E]", "abundance fitness": "0.161 ± 0.13"},
      {"variant": "EGLCAVCGDNAACQHYGVRTCEGCKLFFKRTVQKNAKYVCLANKNCPVDKRRRNRCQYCRFQKCLAVGMVKEVVRTD", "note": "[G26L]", "abundance fitness": "-0.137 ± 0.072"},
      {"variant": "EGLCAVCGDNAACQHYGVRTCEGCKMFFKRTVQKNAKYVCLANKNCPVDKRRRNRCQYCRFQKCLAVGMVKEVVRTD", "note": "[G26M]", "abundance fitness": "-0.27 ± 0.18"},
      {"variant": "EGLCAVCGDNAACQHYGVRTCEGCKGFFKRTVQKNAKYVCLANKNCPVDKRRRNRCQYCRFQGCLAVGMVKEVVRTD", "note": "[K63G]", "abundance fitness": "-0.559 ± 0.044"},
      {"variant": "EGLCAVCGDNAACLHYGVRTCEGCKGFFKRTVQKNAKYVCLANKNCPVDKRRRNRCQYCRFQKCLAVGMVKEVVRTD", "note": "[Q14L]", "abundance fitness": "0.221 ± 0.073"},
      {"variant": "EGLCAVCGDNAACQHYGVRTCEGCKGTFKRTVQKNAKYVCLANKNCPVDKRRRNRCQYCRFQKCLAVGMVKEVVRTD", "note": "[F27T]", "abundance fitness": "-1.04 ± 0.33"},
      {"variant": "EGLCAVCGDNAACQHYGVRTCEGCKGFFKRTVRKNAKYVCLANKNCPVDKRRRNRCQYCRFQKCLAVGMVKEVVRTD", "note": "[Q33R]", "abundance fitness": "-0.252 ± 0.37"},
      {"variant": "EGLCAVCGDNAACQHYGVRTCEGCKGFFKRTVQKNAKYVCLANKNCPVDFRRRNRCQYCRFQKCLAVGMVKEVVRTD", "note": "[K50F]", "abundance fitness": "-0.055 ± 0.094"},
      {"variant": "EGLCAVCGDNAACQHYGVRTCEGCKGFFKRTVQKNAKYVCLANKNCPVDLRRRNRCQYCRFQKCLAVGMVKEVVRTD", "note": "[K50L]", "abundance fitness": "-0.155 ± 0.073"},
      {"variant": "ESLCAVCGDNAACQHYGVRTCEGCKGFFKRTVQKNAKYVCLANKNCPVDKRRRNRCQYCRFQKCLAVGMVKEVVRTD", "note": "[G2S]", "abundance fitness": "-0.075 ± 0.28"},
      {"variant": "EGLCAVCGDNAACQHYGVRTCEGCKGFFKRTVQKNAKYVCLANKNCPVDKRVRNRCQYCRFQKCLAVGMVKEVVRTD", "note": "[R52V]", "abundance fitness": "-0.021 ± 0.043"},
      {"variant": "EGLCAVCGDNAACQHYLVRTCEGCKGFFKRTVQKNAKYVCLANKNCPVDKRRRNRCQYCRFQKCLAVGMVKEVVRTD", "note": "[G17L]", "abundance fitness": "-0.133 ± 0.099"},
      {"variant": "EGLCAVCGDNAACQHYGVRTCEGCKGFFKRTVQKNAKYVCLANKNCPVDKRRRNRCQYCIFQKCLAVGMVKEVVRTD", "note": "[R60I]", "abundance fitness": "-0.355 ± 0.3"},
      {"variant": "EGLCAVCGDNAACQHYGVRTCEGCKGFFKRTVQKNAKYVCLANKNCPVDKRRRNRCQYCRFQKCLADGMVKEVVRTD", "note": "[V67D]", "abundance fitness": "-0.728 ± 0.31"},
      {"variant": "EGLCAVCGDNAACQHYGVRTCEGCKGFFKRTVQKNAKYVCLANKNCPVDKRRRNRCQYCRFQKCVAVGMVKEVVRTD", "note": "[L65V]", "abundance fitness": "-0.096 ± 0.041"},
      {"variant": "EGLCAVCGDNAACQHYGVRTCEGCKGFFKRTVQKNAKYVCLANKNCPVDKRRRNRCQYCRFQKCSAVGMVKEVVRTD", "note": "[L65S]", "abundance fitness": "-0.308 ± 0.1"},
      {"variant": "EGLCAVCGDNAACQHYGVRTCEGCKGFFKRTVQKNAKYVCLANKNCPVDKRRRNRCQYCRFQKCLKVGMVKEVVRTD", "note": "[A66K]", "abundance fitness": "-0.2 ± 0.36"},
      {"variant": "EGLCAVCGDNAACQHYGVRTCEGCKGFFKRTVQKNAKYVCLANKNCPVDKRRRNRCQLCRFQKCLAVGMVKEVVRTD", "note": "[Y58L]", "abundance fitness": "-0.441 ± 0.079"},
      {"variant": "EGLCAVCGDNAACQHYGVRTCNGCKGFFKRTVQKNAKYVCLANKNCPVDKRRRNRCQYCRFQKCLAVGMVKEVVRTD", "note": "[E22N]", "abundance fitness": "0.248 ± 0.25"},
      {"variant": "EGLCAVCGDNAACQHYGVRTCPGCKGFFKRTVQKNAKYVCLANKNCPVDKRRRNRCQYCRFQKCLAVGMVKEVVRTD", "note": "[E22P]", "abundance fitness": "-0.001 ± 0.094"},
      {"variant": "EGLCAVCGDNAACQHYGVRTCEGCKGFFKRTVQKNAKYVCLANKNCPVDKRRRNRRQYCRFQKCLAVGMVKEVVRTD", "note": "[C56R]", "abundance fitness": "-1.06 ± 0.19"},
      {"variant": "EGLCAVCGDNAACQQYGVRTCEGCKGFFKRTVQKNAKYVCLANKNCPVDKRRRNRCQYCRFQKCLAVGMVKEVVRTD", "note": "[H15Q]", "abundance fitness": "-0.318 ± 0.26"},
      {"variant": "EGLCAVCGDNAACQMYGVRTCEGCKGFFKRTVQKNAKYVCLANKNCPVDKRRRNRCQYCRFQKCLAVGMVKEVVRTD", "note": "[H15M]", "abundance fitness": "0.054 ± 0.1"},
      {"variant": "EGLCAVCGDNAACQHYGVRTCEGCKGFFKRTVQKNAKYVCLANKNCPVDKRRDNRCQYCRFQKCLAVGMVKEVVRTD", "note": "[R53D]", "abundance fitness": "-0.175 ± 0.18"},
      {"variant": "EGLCAVCGDNAACQHYGVRTCEGCKGFFKRTVQKNAKYVCLANKNCPVDKRRLNRCQYCRFQKCLAVGMVKEVVRTD", "note": "[R53L]", "abundance fitness": "-0.12 ± 0.061"},
      {"variant": "EGLCAVCGDNAACQHYGVRTCEGCKGFNKRTVQKNAKYVCLANKNCPVDKRRRNRCQYCRFQKCLAVGMVKEVVRTD", "note": "[F28N]", "abundance fitness": "-0.707 ± 0.43"},
      {"variant": "EGLCAVCGDNAACQHYGVRTCEGCKGFSKRTVQKNAKYVCLANKNCPVDKRRRNRCQYCRFQKCLAVGMVKEVVRTD", "note": "[F28S]", "abundance fitness": "-0.381 ± 0.095"}
    ]}
  ]
}
